The text below walks through data of patent publication US20040052794A1 (published 2004).

For assay [1], the target named is T1, GST-RB18A-N1 (aa 436 to 1566) fusion protein (human, UniProt Q15648 451-1581).
T1 construct: D9 cDNA cloned downstream of the glutathione transferase gene in pGEX4T-3; also called GST-RB18A fusion protein; mutant 1; not shown: GST moiety (glutathione transferase of pGEX4T-3) and the vector linker between GST and RB18A
As to the kind of experiment: GST pull-down, quantification of retained protein. The text has this: (§1) GST fusion proteins were produced in E. coli strain BL21 and purified on glutathione Sepharose 4B beads (Pharmacia LKB) as described by the manufacturer. […] After washing, pelleting, and boiling in Laemmli buffer, eluted proteins were resolved on 10% SDS/PAGE and visualized by autoradiography.

Assay [2] has as its target T1, GST-RB18A-N1 (aa 436 to 1566) fusion …. Nature of the assay: GST pull-down of 35S-translated product on glutathione Sepharose beads.
Description: as §1

Assay [3] has as its target human wild-type p53 (product of p53-H8 cDNA, plasmid pSP65-p53H8) (human, UniProt P04637 1-393). Nature of the assay: cell-based or functional assay.

human wild-type p53 (product of p53-H8 cDNA, plasmid pSP65-p53H8), sequence (P04637 whole entry): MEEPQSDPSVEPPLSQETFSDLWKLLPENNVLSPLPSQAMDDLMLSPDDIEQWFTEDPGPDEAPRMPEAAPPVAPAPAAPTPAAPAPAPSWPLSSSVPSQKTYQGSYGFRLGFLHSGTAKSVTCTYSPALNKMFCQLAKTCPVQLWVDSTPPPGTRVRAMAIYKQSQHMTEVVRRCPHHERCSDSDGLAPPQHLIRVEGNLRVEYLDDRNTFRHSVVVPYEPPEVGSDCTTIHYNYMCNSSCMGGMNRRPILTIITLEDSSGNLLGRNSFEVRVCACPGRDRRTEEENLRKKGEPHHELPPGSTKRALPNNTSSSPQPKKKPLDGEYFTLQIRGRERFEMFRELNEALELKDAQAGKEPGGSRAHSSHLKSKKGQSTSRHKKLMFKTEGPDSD

B1: in vitro translated product of D9 cDNA (partial RB18A, aa 436 to 1566) (other)
chain: SVSFQHPVNDSLVCVVMDVQGLTHVSCKLYKGLSDALICTDDFIAKVVQRCMSIPVTMRAIRRKAETIQADTPALSLIAETVEDMVKKNLPPASSPGYGMTTGNNPMSGTTTSTNTFPGGPIATLFNMSMSIKDRHESVGHGEDFSKVSQNPILTSLLQITGNGGSTIGSSPTPPHHTPPPVSSMAGNTKNHPMLMNLLKDNPAQDFSTLYGSSPLERQNSSSGSPRMEICSGSNKTKKKKSSRLPPEKPKHQTEDDFQRELFSMDVDSQNPIFDVNMTADTLDTPHITPAPSQCSTPPTTYPQPVPHPQPSIQRMVRLSSSDSIGPDVTDILSDIAEEASKLPSTSDDCPAIGTPLRDSSSSGHSQSTLFDSDVFQTNNNENPYTDPADLIADAAGSPSSDSPTNHFFHDGVDFNPDLLNSQSQSGFGEEYFDESSQSGDNDDFKGFASQALNTLGVPMLGGDNGETKFKGNNQADTVDFSIISVAGKALAPADLMEHHSGSQGPLLTTGDLGKEKTQKRVKEGNGTSNSTLSGPGLDSKPGKRSRTPSNDGKSKDKPPKRKKADTEGKSPSHSSSNRPFTPPTSTGGSKSPGSAGRSQTPPGVATPPIPKITIQIPKGTVMVGKPSSHSQYTSSGSVSSSGSKSHHSHSSSSSSSASTSGKMKSSKSEGSSSSKLSSSMYSSQGSSGSSQSKNSSQSGGKPGSSPITKHGLSSGSSSTKMKPQGKPSSLMNPSLSKPNISPSHSRPPGGSDKLASPMKPVPGTPPSSKAKSPISSGSGGSHMSGTSSSSGMKSSSGLGSSGSLSQKTPPSSNSCTASSSSFSSSGSSMSSSQNQHGSSKGKSPSRNKKPSLTAVIDKLKHGVVTSGPGGEDPLDGQMGVSTNSSSHPMSSKHNMSGGEFQGKREKSDKDKSKVSTSGSSVDSSKKTSESKNVGSTGVAKIIISKHDGGSPSIKAKVTLQKPGESSGEGLRPQMASSKNYGSPLISGSTPKHERGSPSHSKSPAYTPQNLDSESESGSSIAEKSYQNSPSSDDGIRPLPEYSTEKHKKHKKEKKKVKDKDRDRDRDKDRDKKKSHSIKPESWSKSPISSDQSLSMTSNTILSADRPSRLSPDFMIGEEDDDLMDVALIGN
modifications: 35S-methionine labelled
notes: also called 35S-RB18A protein; in vitro translated D9 protein
With B1, the “molar ratio retained on GST-RB18A” value in assay [1] stood at 1 molar ratio. Moreover, the “% of input bound” value in assay [2] is 10 % of input.

B2: carboxy-terminal domain of RB18A expressed in transfected cells (cDNA nucleotides 3935 to 4933) (other)
chain: LGSSGSLSQKTPPSSNSCTASSSSFSSSGSSMSSSQNQHGSSKGKSPSRNKKPSLTAVIDKLKHGVVTSGPGGEDPLDGQMGVSTNSSSHPMSSKHNMSGGEFQGKREKSDKDKSKVSTSGSSVDSSKKTSESKNVGSTGVAKIIISKHDGGSPSIKAKVTLQKPGESSGEGLRPQMASSKNYGSPLISGSTPKHERGSPSHSKSPAYTPQNLDSESESGSSIAEKSYQNSPSSDDGIRPLPEYSTEKHKKHKKEKKKVKDKDRDRDRDKDRDKKKSHSIKPESWSKSPISSDQSLSMTSNTILSADRPSRLSPDFMIGEEDDDLMDVALIGN
Consider B2, for which, in assay [3], the “activation of the IGF-BP3 promoter (reporter gene in H1299 and K562 cells)” value came to 13 fold; the “activation of the MDM2 promoter (reporter gene in H1299 and K562 cells)” value was 5 fold; the “activation of the p21Waf1 promoter (reporter gene in H1299 and K562 cells)” value was 10 fold.
